Assay results from patent US20120328616A1 (Amgen, published 2012).
Where a chain is given by its changes, count along the chain named.

T1: huBeta_Klotho (1-301, 509-743, 967-1044) (muBeta KLOTHO 302-506, 742-964) (human; murine, UniProt Q86Z14 1-1044)
T1 construct: also called Chimera 14; Construct 14
T1 chain: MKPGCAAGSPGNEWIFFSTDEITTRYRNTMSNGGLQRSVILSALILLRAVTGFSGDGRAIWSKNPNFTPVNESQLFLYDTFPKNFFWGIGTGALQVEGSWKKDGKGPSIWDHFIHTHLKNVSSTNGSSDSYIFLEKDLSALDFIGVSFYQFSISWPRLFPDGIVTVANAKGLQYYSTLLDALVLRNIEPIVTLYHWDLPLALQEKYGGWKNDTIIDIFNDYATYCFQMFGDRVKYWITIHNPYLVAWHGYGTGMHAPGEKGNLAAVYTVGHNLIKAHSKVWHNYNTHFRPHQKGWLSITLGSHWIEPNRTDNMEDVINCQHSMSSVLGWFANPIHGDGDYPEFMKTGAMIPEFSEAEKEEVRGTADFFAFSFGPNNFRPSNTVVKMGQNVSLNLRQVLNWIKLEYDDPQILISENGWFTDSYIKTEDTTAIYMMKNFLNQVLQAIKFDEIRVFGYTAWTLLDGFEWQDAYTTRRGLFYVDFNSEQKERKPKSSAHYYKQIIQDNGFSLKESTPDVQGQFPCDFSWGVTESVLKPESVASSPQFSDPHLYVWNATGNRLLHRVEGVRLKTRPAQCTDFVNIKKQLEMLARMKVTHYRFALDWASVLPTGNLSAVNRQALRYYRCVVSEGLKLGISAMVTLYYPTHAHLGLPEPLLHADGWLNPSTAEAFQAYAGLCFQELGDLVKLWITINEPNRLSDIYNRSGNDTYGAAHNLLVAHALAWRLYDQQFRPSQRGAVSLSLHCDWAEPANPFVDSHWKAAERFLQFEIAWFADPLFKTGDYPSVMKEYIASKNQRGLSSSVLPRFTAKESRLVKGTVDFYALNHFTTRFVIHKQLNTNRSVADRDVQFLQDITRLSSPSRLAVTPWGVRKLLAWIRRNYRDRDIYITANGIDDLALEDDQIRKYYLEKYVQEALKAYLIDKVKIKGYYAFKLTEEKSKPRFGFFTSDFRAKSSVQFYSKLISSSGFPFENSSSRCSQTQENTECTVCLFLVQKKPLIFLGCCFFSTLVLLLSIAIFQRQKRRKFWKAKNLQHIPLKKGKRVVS

T2: huBeta_Klotho (1-81, 523-1044) (muBetaKLOTHO 82-520) (human; murine, UniProt Q86Z14 1-1044)
T2 construct: Expressed on HEK-293T cells; also called Chimera 1; Construct 1
T2 chain: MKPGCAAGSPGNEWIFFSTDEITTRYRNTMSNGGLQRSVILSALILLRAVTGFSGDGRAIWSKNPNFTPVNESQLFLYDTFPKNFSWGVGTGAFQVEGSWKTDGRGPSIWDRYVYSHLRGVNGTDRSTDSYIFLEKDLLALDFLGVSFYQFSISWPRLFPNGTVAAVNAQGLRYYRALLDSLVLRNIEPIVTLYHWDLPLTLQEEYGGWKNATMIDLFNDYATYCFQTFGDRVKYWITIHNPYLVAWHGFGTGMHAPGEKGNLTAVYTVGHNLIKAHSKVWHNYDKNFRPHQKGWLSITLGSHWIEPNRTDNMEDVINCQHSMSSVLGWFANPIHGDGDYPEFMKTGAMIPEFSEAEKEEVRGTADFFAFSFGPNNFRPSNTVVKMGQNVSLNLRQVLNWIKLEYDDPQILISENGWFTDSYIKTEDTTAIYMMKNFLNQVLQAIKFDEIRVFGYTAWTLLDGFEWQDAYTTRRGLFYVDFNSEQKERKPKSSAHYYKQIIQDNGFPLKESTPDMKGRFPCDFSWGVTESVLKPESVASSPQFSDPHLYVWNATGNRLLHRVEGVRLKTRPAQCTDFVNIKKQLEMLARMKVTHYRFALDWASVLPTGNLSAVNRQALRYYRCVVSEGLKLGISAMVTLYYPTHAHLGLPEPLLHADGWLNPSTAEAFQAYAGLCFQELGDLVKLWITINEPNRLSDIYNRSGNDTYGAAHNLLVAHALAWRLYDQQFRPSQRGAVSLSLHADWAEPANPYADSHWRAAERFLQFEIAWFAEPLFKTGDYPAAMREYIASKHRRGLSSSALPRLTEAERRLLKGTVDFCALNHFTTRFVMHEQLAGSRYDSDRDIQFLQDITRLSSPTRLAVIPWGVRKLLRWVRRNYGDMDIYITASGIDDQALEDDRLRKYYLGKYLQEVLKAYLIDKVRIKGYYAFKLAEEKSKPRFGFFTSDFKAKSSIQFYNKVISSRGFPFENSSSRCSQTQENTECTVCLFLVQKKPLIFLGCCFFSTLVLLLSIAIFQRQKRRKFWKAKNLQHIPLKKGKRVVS

B1: 67C10.1 (antibody, V domains shown)
VH: EVQLVQSGAEVKKPGESLKISCQGSGYSFSSYWIGWVRQMPGKGLEWMGIIYPGDSDTRYSPSFQGQVTISADKSINTAYLQWSSLKASDTAIYYCARRASRGYRYGLAFAIWGQGTMVTVSS
VL: DFVMTQTPLSLPVTPGEPASISCRSSQSLLNSDDGNTYLDWYLQKPGQSPQLLIYTLSYRASGVPDRFSGSGSGTDFTLKISRVEAEDVGVYYCMQRIEFPITFGQGTRLEIKR
B2: 49G3.3 (antibody, V domains shown)
VH: QVTLKESGPVLVKPTETLTLTCTVSGFSLSNPRMGVSWIRQPPGKALEWLTHIFSNDEKSYSTSLKSRLTISKDTSKSQVVLSMTNMDPVDTATYYCVRVDTLNYHYYGMDVWGQGTTVTVSS
VL: DIQMTQSPSSLSASIGDRVTITCQASQGISNYLNWYQQKPGKAPKLLIYDASNLETGVPSRFSGSGSGTDFTFTISSLQPEDIATYYCHQYDDLPLTFGGGTKVEIRR
B3: 51E5.1 (antibody, V domains shown)
VH: QVQLQQWGAGLLKPSETLSLTCAVYGGSFSGYYWSWIRQPPGKGLEWIGELDHSGSINYNPSLKSRVTISVDTSKNQFSLKLTSVTAADTAVYYCARVLGSTLDYWGQGTLVTVSS
VL: DIQMTQSPSSLSASVGDRVTITCRASQDIRNDLGWYQQKPGKAPNRLIYAASSLQFGVPSRFSGSGSGTEFTLTISSLQPEDFATYYCLQHSSYPLTFGGGTRVEIKR
B4: 66G2.1 (antibody, V domains shown)
VH: QVQLVESGGGVVQPGRSLRLSCAASGFTFSSYGMHWVRQAPGKGLEWVAGISYDGSNKNYADSVKGRITISRDNPKNTLYLQMNSLRAEDTAVYYCATTVTKEDYYYYGMDVWGQGTTVTVSS
VL: B3 VL with D28G, N45K, S53N, F56S, E70K, S76N, H91L, S92N, S93G, R103K
B5: 65C3.1 (antibody, V domains shown)
VH: QVQLQESGPGLVKPSETLSLTCTVSGGSISSYYWSWIRQPPGKGLEWIGYIYYTGSTNYNPSLKSRVTISVDTSKNQFSLKLSSVTAADTAVYYCAREYYYGSGSYYPWGQGTLVTVSS
VL: EMVMTQSPATLSVSPGERATLSCRASQSVSSQLAWYQEKPGRAPRLLIYGASNRAIDIPARLSGSGSGTEFTLTISSLQSEDFAVYYCQQYNNWPWTFGQGTKVEFKR
B6: 67F5.1 (antibody, V domains shown)
VH: B5 VH with Q5K, T54S, S56N
VL: EIVMTQSPATLSVSPGERVTLSCRASQSVSSNLAWYQQKPGQAPRLLIHGSSNRAIGIPARFSGSGSGTEFTLTISSLQSADFAVYNCQQYEIWPWTFGQGTKVEIKR

Target: T3, huBeta_Klotho (1-507) (muBetaKLOTHO 506F-1045S) (human; murine, UniProt Q99N32 1-1043)
T3 construct: also called Chimera 2; Construct 2
Assay: flow cytometry, transfected HEK-293T

Question: Does B1 bind?
Answer: Result: no binding

Question: Does B2 bind?
Answer: Result: binds

Question: Does B3 bind?
Answer: Result: no binding

Question: Does B4 bind?
Answer: Result: no binding

Question: Does B5 bind?
Answer: Result: no binding

Question: Does B6 bind?
Answer: Result: no binding

Target: T4, huBeta_Klotho (194-1044) (muBetaKLOTHO 1-L193) (murine; human, UniProt Q86Z14 1-1044)
T4 construct: also called Chimera 3; Construct 3
Assay: flow cytometry, transfected HEK-293T

Question: Does B1 bind?
Answer: Result: binds

Question: Does B2 bind?
Answer: Result: no binding

Question: Does B3 bind?
Answer: Result: binds

Question: Does B4 bind?
Answer: Result: binds

Question: Does B5 bind?
Answer: Result: binds

Question: Does B6 bind?
Answer: Result: binds

Target: T5, huBeta_Klotho (1-81, 303-1044) (muBetaKLOTHO 82P-302S) (human; murine, UniProt Q86Z14 1-1044)
T5 construct: also called Chimera 4; Construct 4
Assay: flow cytometry, transfected HEK-293T

Question: Does B1 bind?
Answer: Result: binds

Question: Does B2 bind?
Answer: Result: binds

Question: Does B3 bind?
Answer: Result: binds

Question: Does B4 bind?
Answer: Result: binds

Question: Does B5 bind?
Answer: Result: binds

Question: Does B6 bind?
Answer: Result: binds

Target: T6, huBeta_Klotho(1-301, 509-1044) (muBetaKLOTHO S302-F506) (human; murine, UniProt Q86Z14 1-1044)
T6 construct: also called Chimera 6; Construct 6
Assay: flow cytometry, transfected HEK-293T

Question: Does B1 bind?
Answer: Result: binds

Question: Does B2 bind?
Answer: Result: no binding

Question: Does B3 bind?
Answer: Result: binds

Question: Does B4 bind?
Answer: Result: binds

Question: Does B5 bind?
Answer: Result: binds

Question: Does B6 bind?
Answer: Result: binds

Target: T7, huBeta_Klotho (1-633, 852-1044) (muBeta KLOTHO 632G-849Q) (human; murine, UniProt Q86Z14 1-1044)
T7 construct: also called Chimera 10; Construct 10
Assay: flow cytometry, transfected HEK-293T

Question: Does B1 bind?
Answer: Result: no binding

Question: Does B2 bind?
Answer: Result: binds

Question: Does B3 bind?
Answer: Result: no binding

Question: Does B4 bind?
Answer: Result: no binding

Question: Does B5 bind?
Answer: Result: binds

Question: Does B6 bind?
Answer: Result: no binding

Target: T8, huBeta_Klotho (1-736, 967-1044) (muBeta KLOTHO 735A-963S) (human; murine, UniProt Q86Z14 1-1044)
T8 construct: also called Chimera 11; Construct 11
Assay: flow cytometry, transfected HEK-293T

Question: Does B1 bind?
Answer: Result: no binding

Question: Does B2 bind?
Answer: Result: binds

Question: Does B3 bind?
Answer: Result: no binding

Question: Does B4 bind?
Answer: Result: no binding

Question: Does B5 bind?
Answer: Result: no binding

Question: Does B6 bind?
Answer: Result: no binding

Target: T9, huBeta_Klotho (1-81, 194-1044) (muBeta KLOTHO 82P-193L) (human; murine, UniProt Q86Z14 1-1044)
T9 construct: also called Chimera 13; Construct 13
Assay: flow cytometry, transfected HEK-293T

Question: Does B1 bind?
Answer: Result: binds

Question: Does B2 bind?
Answer: Result: binds

Question: Does B3 bind?
Answer: Result: binds

Question: Does B4 bind?
Answer: Result: binds

Question: Does B5 bind?
Answer: Result: binds

Question: Does B6 bind?
Answer: Result: binds

Target: T1, huBeta_Klotho (1-301, 509-743, …)
Assay: flow cytometry, transfected HEK-293T

Question: Does B1 bind?
Answer: Result: no binding

Question: Does B2 bind?
Answer: Result: no binding

Question: Does B3 bind?
Answer: Result: no binding

Question: Does B4 bind?
Answer: Result: no binding

Question: Does B5 bind?
Answer: Result: no binding

Question: Does B6 bind?
Answer: Result: no binding

Target: T2, huBeta_Klotho (1-81, 523-1044) …
Assay: flow cytometry, transfected HEK-293T

Question: Does B1 bind?
Answer: Result: binds

Question: Does B2 bind?
Answer: Result: no binding

Question: Does B3 bind?
Answer: Result: binds

Question: Does B4 bind?
Answer: Result: binds

Question: Does B5 bind?
Answer: Result: binds

Question: Does B6 bind?
Answer: Result: binds
